The values below are quoted from earlier work in publication PMC3264399.

Some targets named below: CD46 (Homo sapiens) (UniProt P15529); ephrin-B3 (Homo sapiens) (UniProt Q15768); ephrin-B2 (Homo sapiens) (UniProt P52799).

Sequence of NiV-G (Q9IH62 whole entry): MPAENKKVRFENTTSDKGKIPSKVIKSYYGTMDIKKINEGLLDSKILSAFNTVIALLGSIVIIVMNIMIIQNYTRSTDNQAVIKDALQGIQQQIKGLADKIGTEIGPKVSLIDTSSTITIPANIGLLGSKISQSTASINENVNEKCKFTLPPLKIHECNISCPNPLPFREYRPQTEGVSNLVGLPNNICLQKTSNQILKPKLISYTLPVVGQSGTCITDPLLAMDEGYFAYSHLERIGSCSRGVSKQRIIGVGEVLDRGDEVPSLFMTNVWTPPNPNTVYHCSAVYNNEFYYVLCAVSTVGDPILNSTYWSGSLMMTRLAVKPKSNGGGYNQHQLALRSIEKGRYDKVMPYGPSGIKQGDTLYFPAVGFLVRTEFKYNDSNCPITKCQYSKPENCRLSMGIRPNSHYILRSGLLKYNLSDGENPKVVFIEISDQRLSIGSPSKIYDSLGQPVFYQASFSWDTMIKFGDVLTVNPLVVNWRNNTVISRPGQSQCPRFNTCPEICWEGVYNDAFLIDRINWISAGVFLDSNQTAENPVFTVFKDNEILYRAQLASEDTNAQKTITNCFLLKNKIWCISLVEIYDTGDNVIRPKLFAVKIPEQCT
Sequence of ephrin-B3 (Homo sapiens) (Q15768 28-340): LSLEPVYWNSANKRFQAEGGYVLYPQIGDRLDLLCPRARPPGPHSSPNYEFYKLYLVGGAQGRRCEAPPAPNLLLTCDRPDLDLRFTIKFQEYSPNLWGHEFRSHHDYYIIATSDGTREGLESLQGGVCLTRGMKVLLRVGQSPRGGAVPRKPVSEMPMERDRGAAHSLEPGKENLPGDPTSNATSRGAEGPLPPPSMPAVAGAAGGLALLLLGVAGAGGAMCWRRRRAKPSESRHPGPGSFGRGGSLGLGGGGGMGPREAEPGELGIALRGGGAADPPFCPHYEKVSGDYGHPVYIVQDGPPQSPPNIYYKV
Sequence of CD46 (Homo sapiens) (P15529 35-392): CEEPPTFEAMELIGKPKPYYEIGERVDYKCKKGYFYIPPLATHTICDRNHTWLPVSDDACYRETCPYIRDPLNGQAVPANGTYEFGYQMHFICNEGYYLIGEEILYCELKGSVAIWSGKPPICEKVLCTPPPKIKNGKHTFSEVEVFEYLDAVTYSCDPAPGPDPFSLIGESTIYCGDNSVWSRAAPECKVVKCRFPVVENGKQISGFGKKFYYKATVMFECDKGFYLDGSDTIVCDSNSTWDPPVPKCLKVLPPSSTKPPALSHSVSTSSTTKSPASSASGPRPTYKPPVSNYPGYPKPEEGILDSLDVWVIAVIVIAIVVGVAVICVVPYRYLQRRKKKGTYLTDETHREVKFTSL
Sequence of ephrin-B2 (Homo sapiens) (P52799 28-333): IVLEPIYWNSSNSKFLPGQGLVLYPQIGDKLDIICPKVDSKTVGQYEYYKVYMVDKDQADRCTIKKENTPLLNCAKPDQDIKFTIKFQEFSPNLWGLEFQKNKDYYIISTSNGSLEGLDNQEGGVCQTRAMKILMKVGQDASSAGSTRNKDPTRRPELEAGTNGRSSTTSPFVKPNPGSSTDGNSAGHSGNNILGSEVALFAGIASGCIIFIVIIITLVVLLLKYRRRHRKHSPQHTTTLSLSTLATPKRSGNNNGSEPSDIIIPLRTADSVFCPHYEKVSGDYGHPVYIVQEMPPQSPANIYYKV
Sequence of MeV-H (P08362 157-607): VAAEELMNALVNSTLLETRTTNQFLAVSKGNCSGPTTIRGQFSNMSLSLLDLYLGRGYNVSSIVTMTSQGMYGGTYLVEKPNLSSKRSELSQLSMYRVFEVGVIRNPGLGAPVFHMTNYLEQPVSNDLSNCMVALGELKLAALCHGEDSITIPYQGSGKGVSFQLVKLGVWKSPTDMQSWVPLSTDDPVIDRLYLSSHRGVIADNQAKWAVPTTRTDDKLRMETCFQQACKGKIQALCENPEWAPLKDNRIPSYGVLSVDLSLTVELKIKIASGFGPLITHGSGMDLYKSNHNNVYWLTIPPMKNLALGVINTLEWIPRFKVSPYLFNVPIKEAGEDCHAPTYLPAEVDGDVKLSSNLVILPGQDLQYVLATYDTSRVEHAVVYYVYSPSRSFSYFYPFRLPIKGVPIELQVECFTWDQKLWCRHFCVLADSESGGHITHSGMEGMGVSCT

As usually defined, the Kd is a measure of binding affinity in units of concentration. Consider MeV-H (from UniProt P08362), for which the dissociation constant Kd with CD46 (Homo sapiens) is 2200 nM.

NiV-G (from UniProt Q9IH62): the Kd is 0.58 nM in the data set with ephrin-B3 (Homo sapiens) and 0.06 nM with ephrin-B2 (Homo sapiens).
